Data published in the supplement of paper PMC9170038.

These sequences were tested on MS2 coat protein (assay: apparent KD of MS2 coat protein; higher = weaker reporter binding). Conditions: Eterna round: R107; input ligand: none.
Protocol: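 RNA-MaP round R107: designed RNA switches with theophylline, tryptophan, arginine or FMN aptamers are transcribed on-chip within common flanks. They are titrated with SNAP-549-labelled MS2 coat protein in RNA-MaP buffer (100 mM Tris pH 7.5, 80 mM KCl, 4 mM MgCl2), without ligand or with the indicated ligand. Median apparent KD per design.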

Sequence | apparent KD of MS2 coat protein [nM]
UGGUACAUGGCGGCCGCCACUGGGUUGAAAACCUGAGGAUCACCCUGGUAAAACGCGAAAGCGACUAGGACCGGGUCAUGUACCU | 573
GUCUGUGUCUGAAGGAGCGACAUGAGGAUCACCCAUGUCUCCCGUUAUGGGAGUUCCUUAGGUCAGGUAGGUCGCAGACACAGAC [#1 Exclusion - Arginine B Attempt #27 (Inspired by Omei)] | 123
ACAUGAGGAUCACCCAUGUAAAUAGCGGAAGGAGCGUGCAAAAGCACAGGUAGGUCGCCGAUAUAAUAAUUGGGUAAUAUAUUAU [#27 Exclusion - Arginine A] | 39.1
UAGAUAGAGGGAAGGAGCGCGAUAACAUAACAUGAGGAUCACCCAUGUAAGAAAUUAAUAAUGCAGGUAGGUCGCCCAAGAUGAU [Same State Arginine B gf1] | 14.5
AUAACAUGAGGAUCACCCAUGUAAGCUGAAGGAGCGCUGGAAACAGCAGGUAGGUCGCAGCGGCGACCUUCAUGGGUAAGGUCGC [(M1)-(M2)-(Arg1)-(Arg2)-(A)'-(M)'-(A)''_Design4] | 32.8
AGCGACAUGCGUGAUACCAGCUACAUGAGGAUCACCCAUGUCAGCAGGGAACUGCUGUGUAGCCCUUGGCAGCACAGUGCAUGUC [Exclusion - Theophylline B (Freestyle 29)] | 10.8
CUAUGCAGGUCGGCCGCCACUACACACAUGAGGAUCACCCAUGUAGUUACUGGGUGAAGUGGCAGUAGGACCGGGACCUGCAUAC [Brourdmod10] | 391
AGCCACUCGAGUGAUCCUCACGAGUGGCAACGAGGACCGGUACGGCCGCCACUCGAAUCAACAUGAGGAUCACCCAUGUAAUAAU [Brourdmod01] | 76.3
CGAUAUAUACGAAGGAGCGACAUGAGGAUCACCCAUGUCUACCACGUCGAAAGACGCUCAUGUCAGGUAGGUCGCGUAUAUAUCG [Astros-Eli-mod9] | 137
CCGACAUGAGGAUCACCCAUGUGAACAGAUACCAGUCUGGUAAUAGACCCUUGGCAGCUGAACCAGGAAACUAUGGUGAUCCUGG [Theo A SS t3] | 69.8
AGCCAUGGAAACAUGGCGGCGGCAUGAGCGCGAGGACCGGUACGGCCGCCACUCGGGCGACAUGAGGAUCACCCAUGUUCCUCAU [ETA NP+V+V2 #22 Same Structure] | 289
ACUAGUUGUGCAGAUACCAGACACGAGGAUCACCCGUGUUUGGGAUGUUCGCAUCUUCCUGUCCCUUGGCAGCUGUACAUCUAGA [Omei Theo B Exc v8] | 15.1
CGCAAGCAACAUGAGGAUCACCCAUGUGAAGGAGCGCCGAAUAAGGCAGGUAGGUCGCACAUGAAUAAAUCAUGUAAAAGCUUGC [MAT - Exclusion Arginine A - Mod of Eli - D22] | 62.7
AGCACGGUGAUGGUAGCCGGACGCUAAGUACGAGGACCGGUACGGCCGCCACUCGGAGUCCUACGACAUGAGGAUCACCCAUGUA [Same State Trp A GF12] | 34.9
UCACAUGAGGAUCACCCAUGUAUAGUUGAAGGAGCGAUCAGGAGGUCAGGUAGGUCGCAGCACAUGAGGAUCACCCAUGUAUCGA [DOUBLE!!! :-D #4] | 85.2
UUCGCGGCCGCGCUGCACAUGUGUGUGUUACGAGGACCGGUACGGCCGCCACUCGCGAUCGCACAUGAGGAUCACCCAUGUGGGA [Exclusion Tryp A GF17] | 25.7
UCGGGCAGAGCGGCCGCCACUGUUUGGCGUGCGGAUGACGGAACAUGAGGAUCACCCAUGUUGUUUAGGACCGGGCUUGCGGCGU [ipimullin] | 12.7
UACAUAUGCCGAAGGAGCGCGAGAUGCAAAGCAUCAAUCCUUACAUGAGGAUCACCCAUGUCGCAGGUAGGUCGCGGCAUAUGUU [ArgBX 2] | 33.6
UGAUCCUGCAGGGAUACCAGCGCCGCUAGAUAACUAUGCACAUGAGGAUCACCCAUGUAACGCCCUUGGCAGCCCAACUAAAGGG [Same State Theophylline B GF21] | 39.9
AGAGCAUUGACGGCCGCCACUCAUGUCACAUGAGGAUCACCCAUGUGAUGGGUAAUUGCCCGGUUGAGGACCGGGUCAAUGCUCA [Omei Tryp SS B v4] | 8.32
AAAACACAUGAGGAUCACCCAUGUCAUGAUACCAGUCAACAUGAGGACCCUUGGCAGCAUAAAAUGGGUAACAUGAGGAUCACCC [AstrosEXyTheA#1] | 29.4

Same assay, conditions: Eterna round: R107; input ligand: theophylline 20 uM

Sequence | apparent KD of MS2 coat protein [nM]
AGGAAUGUCACGGCCGCCACUGACGCUAAAAUGGGCUCGAGCCGACAUGAGGAUCACCCAUGUUCCAGGACCGGGUGAAUCCUGG [theeternabot_sameState_MS2_Trp_B_40] | 154
GCGGUACGUACUGAUACCAGAGACAUGAGGAUCACCCAUGUCCCAUGGUCAUGCCUCAGACUCCCUUGGCAGCAGGAUAAGUGCG [Exclusion Theophylline B GF3] | 17.1
UGGUACAUGGCGGCCGCCACUGGGUUGAAAACCUGAGGAUCACCCUGGUAAAACGCGAAAGCGACUAGGACCGGGUCAUGUACCU | 891
GUCUGUGUCUGAAGGAGCGACAUGAGGAUCACCCAUGUCUCCCGUUAUGGGAGUUCCUUAGGUCAGGUAGGUCGCAGACACAGAC [#1 Exclusion - Arginine B Attempt #27 (Inspired by Omei)] | 164
UAAAACAUGAGGAUCACCCAUGUAUUGAGUCGAGGACCGGUACGGCCGCCACUCGGCAAUAAUAACGACGCAUAGCAUGUAGGAA [theeternabot_sameState_MS2_Trp_A_41] | 19.5
ACAUGAGGAUCACCCAUGUAAAUAGCGGAAGGAGCGUGCAAAAGCACAGGUAGGUCGCCGAUAUAAUAAUUGGGUAAUAUAUUAU [#27 Exclusion - Arginine A] | 24.6
AUAACACAUGAGGAUCACCCAUGUAAGGAUACCAGUUUCUGAUUAAACCCUUGGCAGCCUAGAGAUAGUCAUGUAAUAACGGCGA [theeternabot_sameState_MS2_Theo_A_19] | 18.1
GCGUUGGCCACGGCCGCCACUCAGGUACCGCGCGUAGUGAACUUACAUGAGGAUCACCCAUGUCUGAGGACCGGGUGGCCGCCAC [theeternabot_sameState_MS2_Trp_B_27] | 70.3
UAGAUAGAGGGAAGGAGCGCGAUAACAUAACAUGAGGAUCACCCAUGUAAGAAAUUAAUAAUGCAGGUAGGUCGCCCAAGAUGAU [Same State Arginine B gf1] | 15.1
AUAACAUGAGGAUCACCCAUGUAAGCUGAAGGAGCGCUGGAAACAGCAGGUAGGUCGCAGCGGCGACCUUCAUGGGUAAGGUCGC [(M1)-(M2)-(Arg1)-(Arg2)-(A)'-(M)'-(A)''_Design4] | 41.2
AGCGACAUGCGUGAUACCAGCUACAUGAGGAUCACCCAUGUCAGCAGGGAACUGCUGUGUAGCCCUUGGCAGCACAGUGCAUGUC [Exclusion - Theophylline B (Freestyle 29)] | 12.3
AGAAUAACACAUGAGGAUCACCCAUGUGAUACCAGCUAGGAAACUAGCCCUUGGCAGCACAUAAGGUGAUCCAGCUGCCAAGAAU [(M1)-(M2)-(T1)-(T2)-(M)'-(T)'_Design1_2/19/17] | 175
CUAUGCAGGUCGGCCGCCACUACACACAUGAGGAUCACCCAUGUAGUUACUGGGUGAAGUGGCAGUAGGACCGGGACCUGCAUAC [Brourdmod10] | 394
UCCUGCAGAGCGGCCGCCACUGUGUUGCGUGAGGAUGACCCAACAUGAGGAUCACCCAUGUUGUUUAGGACCGGGCUUGCCUCGA [xcmulliny] | 17.2
AGCCACUCGAGUGAUCCUCACGAGUGGCAACGAGGACCGGUACGGCCGCCACUCGAAUCAACAUGAGGAUCACCCAUGUAAUAAU [Brourdmod01] | 123
CGAUAUAUACGAAGGAGCGACAUGAGGAUCACCCAUGUCUACCACGUCGAAAGACGCUCAUGUCAGGUAGGUCGCGUAUAUAUCG [Astros-Eli-mod9] | 123
CCGACAUGAGGAUCACCCAUGUGAACAGAUACCAGUCUGGUAAUAGACCCUUGGCAGCUGAACCAGGAAACUAUGGUGAUCCUGG [Theo A SS t3] | 89.5
AGCCAUGGAAACAUGGCGGCGGCAUGAGCGCGAGGACCGGUACGGCCGCCACUCGGGCGACAUGAGGAUCACCCAUGUUCCUCAU [ETA NP+V+V2 #22 Same Structure] | 312
ACAUGAGGAUCACCCAUGUUCCUCAUUGAUACCAGUGAAUUUAGACGCCCUUGGCAGCGAGUUUUUUAAGAAGAAGUUUUUUUUU [6.E] | 793
